Measured values: article PMC4417153 (Nucleic Acids Research, 2015)
“And” between values parts separate entries of the source, which are not always exact repeats. Equal entries are not always repeated.

B1: Twinkle (human mitochondrial replicative helicase), mature, aa 43-684, produced in E. coli (enzyme, UniProt Q96RR1 43-684, looked up)
chain: ETLQALDMPVLPVTATEIRQYLRGHGIPFQDGHSCLRALSPFAESSQLKGQTGVTTSFSLFIDKTTGHFLCMTSLAEGSWEDFQASVEGRGDGAREGFLLSKAPEFEDSEEVRRIWNRAIPLWELPDQEEVQLADTMFGLTKVTDDTLKRFSVRYLRPARSLVFPWFSPGGSGLRGLKLLEAKCQGDGVSYEETTIPRPSAYHNLFGLPLISRRDAEVVLTSRELDSLALNQSTGLPTLTLPRGTTCLPPALLPYLEQFRRIVFWLGDDLRSWEAAKLFARKLNPKRCFLVRPGDQQPRPLEALNGGFNLSRILRTALPAWHKSIVSFRQLREEVLGELSNVEQAAGLRWSRFPDLNRILKGHRKGELTVFTGPTGSGKTTFISEYALDLCSQGVNTLWGSFEISNVRLARVMLTQFAEGRLEDQLDKYDHWADRFEDLPLYFMTFHGQQSIRTVIDTMQHAVYVYDICHVIIDNLQFMMGHEQLSTDRIAAQDYIIGVFRKFATDNNCHVTLVIHPRKEDDDKELQTASIFGSAKASQEADNVLILQDRKLVTGPGKRYLQVSKNRFDGDVGVFPLEFNKNSLTFSIPPKNKARLKKIKDDTGPVAKKPSSGKKGATTQNSEICSGQAPTPDQPDTSKRSK
B2: Twinkle (human mitochondrial replicative helicase), aa 30-684, produced in SF9 insect cells (enzyme, UniProt Q96RR1 30-684, looked up)
chain: NLAPGPPRRRYRKETLQALDMPVLPVTATEIRQYLRGHGIPFQDGHSCLRALSPFAESSQLKGQTGVTTSFSLFIDKTTGHFLCMTSLAEGSWEDFQASVEGRGDGAREGFLLSKAPEFEDSEEVRRIWNRAIPLWELPDQEEVQLADTMFGLTKVTDDTLKRFSVRYLRPARSLVFPWFSPGGSGLRGLKLLEAKCQGDGVSYEETTIPRPSAYHNLFGLPLISRRDAEVVLTSRELDSLALNQSTGLPTLTLPRGTTCLPPALLPYLEQFRRIVFWLGDDLRSWEAAKLFARKLNPKRCFLVRPGDQQPRPLEALNGGFNLSRILRTALPAWHKSIVSFRQLREEVLGELSNVEQAAGLRWSRFPDLNRILKGHRKGELTVFTGPTGSGKTTFISEYALDLCSQGVNTLWGSFEISNVRLARVMLTQFAEGRLEDQLDKYDHWADRFEDLPLYFMTFHGQQSIRTVIDTMQHAVYVYDICHVIIDNLQFMMGHEQLSTDRIAAQDYIIGVFRKFATDNNCHVTLVIHPRKEDDDKELQTASIFGSAKASQEADNVLILQDRKLVTGPGKRYLQVSKNRFDGDVGVFPLEFNKNSLTFSIPPKNKARLKKIKDDTGPVAKKPSSGKKGATTQNSEICSGQAPTPDQPDTSKRSK

Columns and labels:
SAXS = biological target: the molecule itself; experiment: SAXS
negative staining EM = biological target: the molecule itself; experiment: negative staining EM

Row | Protein | stoichiometry N (SAXS) | stoichiometry N (negative staining EM)
1 | B1 | 7 | 6
2 | B2 |  | 6 and 7
